# Patent US20110086806A1 (published 2011)
# Substitutions are numbered along the chain they refer to.
# T1: recombinant human IL-23R/Fc chimera (R&D Systems) (human, UniProt Q5VWK5 24-355)
# T1 construct: Bought; also called rhIL23RFc
# T1 sequence (looked up): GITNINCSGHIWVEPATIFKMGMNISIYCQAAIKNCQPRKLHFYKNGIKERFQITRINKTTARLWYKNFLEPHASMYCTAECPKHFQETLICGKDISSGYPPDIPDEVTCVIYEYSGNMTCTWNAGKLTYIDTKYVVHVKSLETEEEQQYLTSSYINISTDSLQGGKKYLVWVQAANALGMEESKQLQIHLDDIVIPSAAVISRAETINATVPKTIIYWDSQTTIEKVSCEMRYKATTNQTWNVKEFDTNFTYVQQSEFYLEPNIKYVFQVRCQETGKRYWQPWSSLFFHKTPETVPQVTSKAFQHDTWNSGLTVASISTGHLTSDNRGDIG
# B1: 101-51-1A3 ATRIMER complex (designed binder)
# chain: EPPTQKPKKIVNAKKDVVNTKMFEELKSRLDTLAQEVALLKEQQALQTVCLKGTKVHMKCFLAFTQTKTFHEASEDCISRGGTLSTPQTGSENDALYEYLRQSVGNEAEIWLGLNGSALTNTWVDMTGARIAYKNWEHQPVYQPGGGWGVFGENCAVLSGAANGKWFDKRCRDQLPYICQFGIV
# modifications: Forms a homotrimer through the tetranectin coiled coil; one protomer is given.
# notes: not shown: C-terminal tag: His/Myc (pANA4) or HA-StrepII (pANA10)
# B2: 105-08-2C10 ATRIMER complex (designed binder)
# chain: B1 chain with A118L, N121D, H138T, Q139E, P140I, V141T, Y142A, G145D, W148F
# B3: 101-113-6C102 ATRIMER complex (designed binder)
# chain: B1 chain with A118N, L119V, N121Q, H138P, Q139P, V141P, Y142H, Q143H, G145Q, W148F
# notes: not shown: C-terminal tag
# B4: 101-54-4B10 ATRIMER complex (designed binder)
# chain: B1 chain with H138R, Q139P, V141L, W148F, V150Y
# B5: 105-08-2G10 ATRIMER complex (designed binder)
# chain: B1 chain with A118P, N121D, H138T, Q139E, P140I, V141T, Y142A, G145D, W148F, V150Y
# B6: 105-08-2G7 ATRIMER complex (designed binder)
# chain: EPPTQKPKKIVNAKKDVVNTKMFEELKSRLDTLAQEVALLKEQQALQTVCLKGTKVHMKCFLAFTQTKTFHEASEDCISRGGTLSTPQTGSENDALYEYLRQSVGNEAEIWLGLNGSPKTGTWVDMTGARIAYKNWETEITAQPDGGFGYFGENCAVLSGAANGKWFDKRCRDQLPYICQFGIV
# B7: 101-54-4A12 ATRIMER complex (designed binder)
# chain: EPPTQKPKKIVNAKKDVVNTKMFEELKSRLDTLAQEVALLKEQQALQTVCLKGTKVHMKCFLAFTQTKTFHEASEDCISRGGTLSTPQTGSENDALYEYLRQSVGNEAEIWLGLNGSRRSGVWVDMTGARIAYKNWEPPGPAHPQGGFGVFGENCAVLSGAANGKWFDKRCRDQLPYICQFGIV
# notes: also called 101-54-4Al2
# B8: 101-51-1A5 ATRIMER complex (designed binder)
# chain: B1 chain with H138N, Q139G, P140H, V141E, Y142P, G145R, W148F, V150Y
# modifications: Forms a homotrimer through the tetranectin coiled coil; one protomer is given.
# notes: as for B1
# B9: 101-51-1A8 ATRIMER complex (designed binder)
# chain: B1 chain with H138R, Q139T, V141P, Y142W, G145E, W148F, V150Y
# modifications: Forms a homotrimer through the tetranectin coiled coil; one protomer is given.
# notes: as for B1
# B10: 105-20-2A3 ATRIMER complex (designed binder)
# chain: B6 chain with K119I, G121N
# modifications: Homotrimer of three identical chains (ATRIMER complex); one chain is given.
# notes: as for B1
# B11: 105-20-1H1 ATRIMER complex (designed binder)
# chain: B6 chain with K119L, G121N, F148W
# B12: 101-51-1A6 ATRIMER complex (designed binder)
# chain: B1 chain with H138N, Q139N, P140L, V141S, Y142A, G145R, W148F, V150Y
# modifications: Forms a homotrimer through the tetranectin coiled coil; one protomer is given.
# notes: as for B1
# B13: 105-20-1H7 ATRIMER complex (designed binder)
# chain: B6 chain with P118A, K119G, G121N
# B14: 101-80-5E8 ATRIMER complex (designed binder)
# chain: B1 chain with H138P, Q139P, P140E, V141P, Y142L, Q143H, G145M, W148F
# B15: 105-08-2F6 ATRIMER complex (designed binder)
# chain: B6 chain with P118A, K119Y, G121N
# B16: 101-51-1A10 ATRIMER complex (designed binder)
# chain: B1 chain with Q139P, P140L, V141P, Y142P, G145S, W148F, V150Y
# modifications: Forms a homotrimer through the tetranectin coiled coil; one protomer is given.
# notes: as for B1
# B17: 105-08-1D3 ATRIMER complex (designed binder)
# chain: B6 chain with P118K, K119V, G121E
# B18: 105-08-1A3 ATRIMER complex (designed binder)
# chain: B6 chain with K119R, G121D, F148W, Y150V
# modifications: Homotrimer of three identical chains (ATRIMER complex); one chain is given.
# notes: as for B1
# B19: 105-20-2G12 ATRIMER complex (designed binder)
# chain: B6 chain with K119R, G121N
# B20: 101-51-1A9 ATRIMER complex (designed binder)
# chain: B1 chain with H138P, Q139A, P140R, V141Q, Y142P, W148F, V150Y
# B21: 105-20-2F12 ATRIMER complex (designed binder)
# chain: B6 chain with P118K, K119L, G121D
# modifications: ATRIMER complex: homotrimer of three copies of this chain, joined by the tetranectin coiled coil
# notes: not shown: C-terminal tag: Myc/His (pANA4) or HA-StrepII (pANA10)
# B22: 105-08-1A4 ATRIMER complex (designed binder)
# chain: B6 chain with P118A, K119V, G121N
# B23: 101-54-4B3 ATRIMER complex (designed binder)
# chain: B1 chain with H138L, Q139P, V141P, Y142G, Q143H, G145Q, W148F
# B24: 101-80-5H3 ATRIMER complex (designed binder)
# chain: EPPTQKPKKIVNAKKDVVNTKMFEELKSRLDTLAQEVALLKEQQALQTVCLKGTKVHMKCFLAFTQTKTFHEASEDCISRGGTLSTPQTGSENDALYEYLRQSVGNEAEIWLGLNGSALTNTWVDMTGARIAYKNWEPPAPYHPMAAGVFGENCAVLSGAANGKWFDKRCRDQLPYICQFGIV
# B25: 105-61-4G5 ATRIMER complex (designed binder)
# chain: B6 chain with K119L, G121N, Y150V
# B26: 105-20-2C11 ATRIMER complex (designed binder)
# chain: B6 chain with P118V, K119R, G121D, F148W
# notes: as for B1
# B27: 105-61-4G3 ATRIMER complex (designed binder)
# chain: B6 chain with P118L, K119R, G121D, Y150V
# notes: also called 61-p4G3
# B28: 105-20-2F10 ATRIMER complex (designed binder)
# chain: B6 chain with P118A, K119R, G121D
# notes: as for B1
# B29: 105-59-3A5 ATRIMER complex (designed binder)
# chain: B6 chain with P118L, K119L, G121N, Y150V
# modifications: Homotrimer of three identical chains (ATRIMER complex); one chain is given.
# notes: as for B1
# B30: 105-59-3B5 ATRIMER complex (designed binder)
# chain: B6 chain with K119I, G121D, Y150V
# B31: 105-20-2G5 ATRIMER complex (designed binder)
# chain: B6 chain with P118R, K119R, G121D, F148W
# B32: 105-78-2E6 ATRIMER complex (designed binder)
# chain: B6 chain with P118L, K119R, G121N, Y150V
# B33: 105-78-2D1 ATRIMER complex (designed binder)
# chain: B6 chain with P118L, K119R, G121H, Y150V
# Biological target: T1, recombinant human IL-23R/Fc chimera …
# Assay: SPR
# Description: A Biacore 3000 biosensor (GE Healthcare) was used to evaluate the interaction of human IL-23R and receptor binders. Immobilization of an anti-human IgG Fc antibody (GE Healthcare) to the CM5 chip (GE Healthcare) was performed using standard amine coupling chemistry, and this modified surface was used to capture a recombinant human IL-23R/Fc fusion protein (R&D Systems). A low-density receptor surface, less than 200 RU, was used for all of the analyses. ATRIMER™ polypeptide complex dilutions (1-500 nM) were injected over the IL-23R surface at 30 μl/min and kinetic constants were derived from the sensorgram data using the Biaevaluation software (version 3.1, GE Healthcare). Data collection was 3 minutes for the association and 5 minutes for dissociation. The anti-human IgG surface was regenerated with a 30s pulse of 3M magnesium chloride. All sensorgrams were double-referenced against an activated and blocked flow-cell as well as buffer injections.
Ka [M⁻¹],Kd [nM],koff [s⁻¹],kon [M⁻¹ s⁻¹],Binder
1.77e+09,0.565,0.000262,463000,B1
1.63e+09,0.612,0.000371,606000,B2
9.62e+08,1.04,0.000283,271000,B3
1.11e+09,0.897,0.000429,479000,B4
7.58e+08,1.32,0.000397,302000,B5
6.99e+08,1.43,0.000358,251000,B6
2.16e+09,0.463,0.000573,1.24e+06,B7
1.71e+09,0.584,0.000289,495000,B8
6.62e+08,1.51,0.000396,262000,B9
1.32e+09,0.759,0.000312,412000,B10
1.17e+09,0.857,0.00032,374000,B11
1.34e+09,0.746,0.000415,557000,B12
1.34e+09,0.744,0.000372,500000,B13
2.89e+09,0.346,0.000391,1.13e+06,B14
1.53e+09,0.653,0.000359,550000,B15
4.85e+08,2.06,0.000345,167000,B16
7.58e+08,1.32,0.000301,228000,B17
2.11e+09,0.473,0.000348,735000,B18
1.52e+09,0.658,0.000262,398000,B19
1.05e+09,0.955,0.000329,345000,B20
5.41e+08,1.85,0.000471,254000,B21
8e+08,1.25,0.000312,250000,B22
3.12e+09,0.321,0.000364,1.13e+06,B23
1.55e+08,6.46,0.000327,50500,B24

# Biological target: T1, recombinant human IL-23R/Fc chimera …
# Assay: competition ELISA vs IL-23
row,Ratio IC50 to 056-53.H4E IC50,Binder
1,1.6,B1
2,0.9,B2
3,2,B3
4,1,B25
5,1.4,B4
6,1.8,B5
7,2.5,B6
8,1.1,B7
9,4.8,B26
10,1,B8
11,0.8,B27
12,3.7,B9
13,1.2,B10
14,1.8,B11
15,2.6,B12
16,2.1,B13
17,4.2,B28

row,Ratio IC50 to 056-53.H4E IC50,Binder
1,0.6,B14
2,2.4,B15
3,8.7,B16
4,1.2,B29
5,0.8,B30
6,0.4,B17
7,1.1,B18
8,5.3,B31
9,1,B19
10,1,B32
11,1.3,B33
12,2.2,B20
13,2.8,B21
14,1.6,B22
15,1,B23
16,11.3,B24
